From patent US20260217835A1 (published 2026)

What was measured:
[1] = target: the molecule itself; experiment: co-expression of full-length heavy chain, light chain and Fc fragment in Expi293F, affinity purification, SEC peak area ratio;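 also: purified antibodies analysed by size exclusion chromatography with UV detection at 215 nm, each species given as share of total chromatogram peak area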
[2] = target: T1, IgG2 Fc fragment without modification (SEQ ID NO: 103) (Homo sapiens (Human), UniProt P01859 99-324 = IgG part); experiment: as above
T1 construct: Fc fragment co-expressed with a full-length heavy chain and the light chain; the associating unit is one Fc chain; also called WT-IgG2 Fc fragment

B1: IgG4 full-length heavy chain K392D/D399K/R409D (SEQ ID NO: 97) with light chain SEQ ID NO: 61 (antibody)
heavy: QVQLQESGPGLVRPSQTLSLTCTVSGYSITSDHAWSWVRQPPGRGLEWIGYISYSGITTYNPSLKSRVTMLRDTSKNQFSLRLSSVTAADTAVYYCARSLARTTAMDYWGQGSLVTVSSASTKGPSVFPLAPCSRSTSESTAALGCLVKDYFPEPVTVSWNSGALTSGVHTFPAVLQSSGLYSLSSVVTVPSSSLGTKTYTCNVDHKPSNTKVDKRVESKYGPPCPPCPAPEFLGGPSVFLFPPKPKDTLMISRTPEVTCVVVDVSQEDPEVQFNWYVDGVEVHNAKTKPREEQFNSTYRVVSVLTVLHQDWLNGKEYKCKVSNKGLPSSIEKTISKAKGQPREPQVYTLPPSQEEMTKNQVSLTCLVKGFYPSDIAVEWESNGQPENNYDTTPPVLKSDGSFFLYSDLTVDKSRWQEGNVFSCSVMHEALHNHYTQKSLSLSL
light: not shown
Question: What does the source list for B1?
Answer: Homo full-length heavy chain (%) [1]: 82.5%; Heteromultimer (%) [2]: 0%

B2: IgG4 full-length heavy chain Q347R/K360E/D399V/F405T/R409W (SEQ ID NO: 95) with light chain SEQ ID NO: 61 (antibody)
heavy: QVQLQESGPGLVRPSQTLSLTCTVSGYSITSDHAWSWVRQPPGRGLEWIGYISYSGITTYNPSLKSRVTMLRDTSKNQFSLRLSSVTAADTAVYYCARSLARTTAMDYWGQGSLVTVSSASTKGPSVFPLAPCSRSTSESTAALGCLVKDYFPEPVTVSWNSGALTSGVHTFPAVLQSSGLYSLSSVVTVPSSSLGTKTYTCNVDHKPSNTKVDKRVESKYGPPCPPCPAPEFLGGPSVFLFPPKPKDTLMISRTPEVTCVVVDVSQEDPEVQFNWYVDGVEVHNAKTKPREEQFNSTYRVVSVLTVLHQDWLNGKEYKCKVSNKGLPSSIEKTISKAKGQPREPRVYTLPPSQEEMTENQVSLTCLVKGFYPSDIAVEWESNGQPENNYKTTPPVLVSDGSFTLYSWLTVDKSRWQEGNVFSCSVMHEALHNHYTQKSLSLSL
light: not shown
Question: How did the “Homo full-length heavy chain (%)” value [1] turn out when B2 was run?
Answer: 83.5%

Question: What about the “Heteromultimer (%)” value [2] of the same binder?
Answer: 0%

B3: IgG4 full-length heavy chain K392L/T394W/F405A/Y407V (SEQ ID NO: 96) with light chain SEQ ID NO: 61 (antibody)
heavy: QVQLQESGPGLVRPSQTLSLTCTVSGYSITSDHAWSWVRQPPGRGLEWIGYISYSGITTYNPSLKSRVTMLRDTSKNQFSLRLSSVTAADTAVYYCARSLARTTAMDYWGQGSLVTVSSASTKGPSVFPLAPCSRSTSESTAALGCLVKDYFPEPVTVSWNSGALTSGVHTFPAVLQSSGLYSLSSVVTVPSSSLGTKTYTCNVDHKPSNTKVDKRVESKYGPPCPPCPAPEFLGGPSVFLFPPKPKDTLMISRTPEVTCVVVDVSQEDPEVQFNWYVDGVEVHNAKTKPREEQFNSTYRVVSVLTVLHQDWLNGKEYKCKVSNKGLPSSIEKTISKAKGQPREPQVYTLPPSQEEMTKNQVSLTCLVKGFYPSDIAVEWESNGQPENNYLTWPPVLDSDGSFALVSRLTVDKSRWQEGNVFSCSVMHEALHNHYTQKSLSLSL
light: not shown
Question: How did the “Homo full-length heavy chain (%)” value [1] turn out when B3 was run?
Answer: 81.5%

Question: What about the “Heteromultimer (%)” value [2] of the same binder?
Answer: 0%

B4: IgG1 full-length heavy chain E345R/K360E/D399M/Y407A/K409V (SEQ ID NO: 58) with light chain SEQ ID NO: 61 (antibody)
heavy: QVQLQESGPGLVRPSQTLSLTCTVSGYSITSDHAWSWVRQPPGRGLEWIGYISYSGITTYNPSLKSRVTMLRDTSKNQFSLRLSSVTAADTAVYYCARSLARTTAMDYWGQGSLVTVSSASTKGPSVFPLAPSSKSTSGGTAALGCLVKDYFPEPVTVSWNSGALTSGVHTFPAVLQSSGLYSLSSVVTVPSSSLGTQTYICNVNHKPSNTKVDKRVEPKSCDKTHTCPPCPAPELLGGPSVFLFPPKPKDTLMISRTPEVTCVVVDVSHEDPEVKFNWYVDGVEVHNAKTKPREEQYNSTYRVVSVLTVLHQDWLNGKEYKCKVSNKALPAPIEKTISKAKGQPRRPQVYTLPPSREEMTENQVSLTCLVKGFYPSDIAVEWESNGQPENNYKTTPPVLMSDGSFFLASVLTVDKSRWQQGNVFSCSVMHEALHNHYTQKSLSLSP
light: not shown
notes: also called Sample No. 230
Question: With B4 as the binder, how does the “Homo full-length heavy chain (%)” value [1] read?
Answer: 84.3%

Question: What about the “Heteromultimer (%)” value [2] of the same binder?
Answer: 0%

B5: IgG1 full-length heavy chain E345R/Q347R/K360D/T366V/D399M/Y407A/K409V (SEQ ID NO: 55) with light chain SEQ ID NO: 61 (antibody)
heavy: QVQLQESGPGLVRPSQTLSLTCTVSGYSITSDHAWSWVRQPPGRGLEWIGYISYSGITTYNPSLKSRVTMLRDTSKNQFSLRLSSVTAADTAVYYCARSLARTTAMDYWGQGSLVTVSSASTKGPSVFPLAPSSKSTSGGTAALGCLVKDYFPEPVTVSWNSGALTSGVHTFPAVLQSSGLYSLSSVVTVPSSSLGTQTYICNVNHKPSNTKVDKRVEPKSCDKTHTCPPCPAPELLGGPSVFLFPPKPKDTLMISRTPEVTCVVVDVSHEDPEVKFNWYVDGVEVHNAKTKPREEQYNSTYRVVSVLTVLHQDWLNGKEYKCKVSNKALPAPIEKTISKAKGQPRRPRVYTLPPSREEMTDNQVSLVCLVKGFYPSDIAVEWESNGQPENNYKTTPPVLMSDGSFFLASVLTVDKSRWQQGNVFSCSVMHEALHNHYTQKSLSLSP
light: not shown
Question: Which results are given for B5?
Answer: Homo full-length heavy chain (%) [1]: 83.5%; Heteromultimer (%) [2]: 0%

B6: IgG1 full-length heavy chain E356K/K392D/D399K/K409D (SEQ ID NO: 56) with light chain SEQ ID NO: 61 (antibody)
heavy: QVQLQESGPGLVRPSQTLSLTCTVSGYSITSDHAWSWVRQPPGRGLEWIGYISYSGITTYNPSLKSRVTMLRDTSKNQFSLRLSSVTAADTAVYYCARSLARTTAMDYWGQGSLVTVSSASTKGPSVFPLAPSSKSTSGGTAALGCLVKDYFPEPVTVSWNSGALTSGVHTFPAVLQSSGLYSLSSVVTVPSSSLGTQTYICNVNHKPSNTKVDKRVEPKSCDKTHTCPPCPAPELLGGPSVFLFPPKPKDTLMISRTPEVTCVVVDVSHEDPEVKFNWYVDGVEVHNAKTKPREEQYNSTYRVVSVLTVLHQDWLNGKEYKCKVSNKALPAPIEKTISKAKGQPREPQVYTLPPSRKEMTKNQVSLTCLVKGFYPSDIAVEWESNGQPENNYDTTPPVLKSDGSFFLYSDLTVDKSRWQQGNVFSCSVMHEALHNHYTQKSLSLSP
light: not shown
notes: also called Sample No. 229
Question: With B6 as the binder, how does the “Homo full-length heavy chain (%)” value [1] read?
Answer: 81.4%

Question: And the “Heteromultimer (%)” value [2]?
Answer: 0%

B7: IgG1 full-length heavy chain E356K/K392D/D399K/K439E (SEQ ID NO: 48) with light chain SEQ ID NO: 61 (antibody)
heavy: QVQLQESGPGLVRPSQTLSLTCTVSGYSITSDHAWSWVRQPPGRGLEWIGYISYSGITTYNPSLKSRVTMLRDTSKNQFSLRLSSVTAADTAVYYCARSLARTTAMDYWGQGSLVTVSSASTKGPSVFPLAPSSKSTSGGTAALGCLVKDYFPEPVTVSWNSGALTSGVHTFPAVLQSSGLYSLSSVVTVPSSSLGTQTYICNVNHKPSNTKVDKRVEPKSCDKTHTCPPCPAPELLGGPSVFLFPPKPKDTLMISRTPEVTCVVVDVSHEDPEVKFNWYVDGVEVHNAKTKPREEQYNSTYRVVSVLTVLHQDWLNGKEYKCKVSNKALPAPIEKTISKAKGQPREPQVYTLPPSRKEMTKNQVSLTCLVKGFYPSDIAVEWESNGQPENNYDTTPPVLKSDGSFFLYSKLTVDKSRWQQGNVFSCSVMHEALHNHYTQESLSLSP
light: not shown
Question: Which “Homo full-length heavy chain (%)” value [1] does the source give for B7 here?
Answer: 85.1%

Question: What about the “Heteromultimer (%)” value [2] of the same binder?
Answer: 0%

B8: IgG1 full-length heavy chain K392D/D399K/K409D (SEQ ID NO: 50) with light chain SEQ ID NO: 61 (antibody)
heavy: QVQLQESGPGLVRPSQTLSLTCTVSGYSITSDHAWSWVRQPPGRGLEWIGYISYSGITTYNPSLKSRVTMLRDTSKNQFSLRLSSVTAADTAVYYCARSLARTTAMDYWGQGSLVTVSSASTKGPSVFPLAPSSKSTSGGTAALGCLVKDYFPEPVTVSWNSGALTSGVHTFPAVLQSSGLYSLSSVVTVPSSSLGTQTYICNVNHKPSNTKVDKRVEPKSCDKTHTCPPCPAPELLGGPSVFLFPPKPKDTLMISRTPEVTCVVVDVSHEDPEVKFNWYVDGVEVHNAKTKPREEQYNSTYRVVSVLTVLHQDWLNGKEYKCKVSNKALPAPIEKTISKAKGQPREPQVYTLPPSREEMTKNQVSLTCLVKGFYPSDIAVEWESNGQPENNYDTTPPVLKSDGSFFLYSDLTVDKSRWQQGNVFSCSVMHEALHNHYTQKSLSLSP
light: not shown
Question: B8 was tested. Which “Homo full-length heavy chain (%)” value [1] did it give?
Answer: 81.4%

Question: And the “Heteromultimer (%)” value [2]?
Answer: 0%

B9: IgG1 full-length heavy chain E356K/D399K/K409E/K439E (SEQ ID NO: 36) with light chain SEQ ID NO: 61 (antibody)
heavy: QVQLQESGPGLVRPSQTLSLTCTVSGYSITSDHAWSWVRQPPGRGLEWIGYISYSGITTYNPSLKSRVTMLRDTSKNQFSLRLSSVTAADTAVYYCARSLARTTAMDYWGQGSLVTVSSASTKGPSVFPLAPSSKSTSGGTAALGCLVKDYFPEPVTVSWNSGALTSGVHTFPAVLQSSGLYSLSSVVTVPSSSLGTQTYICNVNHKPSNTKVDKRVEPKSCDKTHTCPPCPAPELLGGPSVFLFPPKPKDTLMISRTPEVTCVVVDVSHEDPEVKFNWYVDGVEVHNAKTKPREEQYNSTYRVVSVLTVLHQDWLNGKEYKCKVSNKALPAPIEKTISKAKGQPREPQVYTLPPSRKEMTKNQVSLTCLVKGFYPSDIAVEWESNGQPENNYKTTPPVLKSDGSFFLYSELTVDKSRWQQGNVFSCSVMHEALHNHYTQESLSLSP
light: not shown
Question: For B9, which “Homo full-length heavy chain (%)” value [1] is on record?
Answer: 84.3%

Question: What about the “Heteromultimer (%)” value [2] of the same binder?
Answer: 0%

B10: IgG2 full-length heavy chain E345R/Q347R/K360D/T366V/D399M/Y407A/K409V (SEQ ID NO: 100) with light chain SEQ ID NO: 61 (antibody)
heavy: QVQLQESGPGLVRPSQTLSLTCTVSGYSITSDHAWSWVRQPPGRGLEWIGYISYSGITTYNPSLKSRVTMLRDTSKNQFSLRLSSVTAADTAVYYCARSLARTTAMDYWGQGSLVTVSSASTKGPSVFPLAPCSRSTSESTAALGCLVKDYFPEPVTVSWNSGALTSGVHTFPAVLQSSGLYSLSSVVTVPSSNFGTQTYTCNVDHKPSNTKVDKTVERKCCVECPPCPAPPVAGPSVFLFPPKPKDTLMISRTPEVTCVVVDVSHEDPEVQFNWYVDGVEVHNAKTKPREEQFNSTFRVVSVLTVVHQDWLNGKEYKCKVSNKGLPAPIEKTISKTKGQPRRPRVYTLPPSREEMTDNQVSLVCLVKGFYPSDIAVEWESNGQPENNYKTTPPMLMSDGSFFLASVLTVDKSRWQQGNVFSCSVMHEALHNHYTQKSLSLSP
light: not shown
notes: also called Sample No. 234
Question: Which “Homo full-length heavy chain (%)” value [1] does the source give for B10 here?
Answer: 76.1%

Question: What about the “Heteromultimer (%)” value [2] of the same binder?
Answer: 0%

B11: IgG2 full-length heavy chain Q347E/S354Y/T366Y/Y407T (SEQ ID NO: 99) with light chain SEQ ID NO: 61 (antibody)
heavy: QVQLQESGPGLVRPSQTLSLTCTVSGYSITSDHAWSWVRQPPGRGLEWIGYISYSGITTYNPSLKSRVTMLRDTSKNQFSLRLSSVTAADTAVYYCARSLARTTAMDYWGQGSLVTVSSASTKGPSVFPLAPCSRSTSESTAALGCLVKDYFPEPVTVSWNSGALTSGVHTFPAVLQSSGLYSLSSVVTVPSSNFGTQTYTCNVDHKPSNTKVDKTVERKCCVECPPCPAPPVAGPSVFLFPPKPKDTLMISRTPEVTCVVVDVSHEDPEVQFNWYVDGVEVHNAKTKPREEQFNSTFRVVSVLTVVHQDWLNGKEYKCKVSNKGLPAPIEKTISKTKGQPREPEVYTLPPYREEMTKNQVSLYCLVKGFYPSDIAVEWESNGQPENNYKTTPPMLDSDGSFFLTSKLTVDKSRWQQGNVFSCSVMHEALHNHYTQKSLSLSP
light: not shown
notes: also called Sample No. 233
Question: With B11 as the binder, how does the “Homo full-length heavy chain (%)” value [1] read?
Answer: 76.3%

Question: And the “Heteromultimer (%)” value [2]?
Answer: 0%
